Like-named read-outs stand apart in the source and are kept apart here.

These results are taken from patent US20240002531A1 (ONO PHARMACEUTICAL, published 2024).

What all share (assay): peptide ELISA, OD 655 nm
The target of assay [1] is T1, HER2_604-622C peptide (NH2-VKPDLSYMPIWKFPDEEGAC-COOH) (human).
T1 construct: KLH was added for immunisation, the peptide itself was coated in the screening ELISA
T1 peptide: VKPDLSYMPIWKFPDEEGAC

Assay [2] deals with T2, L608A peptide (HER2 603-622 with L608A) (human).
T2 peptide: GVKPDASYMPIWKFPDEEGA

The target of assay [3] is T3, W614A peptide (HER2 603-622 with W614A) (human).
T3 peptide: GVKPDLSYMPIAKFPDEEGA

Assay [4] has as its target T4, G621A peptide (HER2 603-622 with G621A) (human).
T4 peptide: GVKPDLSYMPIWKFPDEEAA

Assay [5] has as its target T5, D618A peptide (HER2 603-622 with D618A) (human).
T5 peptide: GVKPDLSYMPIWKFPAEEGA

For assay [6], the target named is T6, E620A peptide (HER2 603-622 with E620A) (human).
T6 peptide: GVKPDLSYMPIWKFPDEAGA

Assay [7] has as its target T7, HER2 peptide p603-622 (amino acids 603 to 622 of human HER2) (human).
T7 construct: Synthetic peptide; also called wild-type HER2 peptide
T7 peptide: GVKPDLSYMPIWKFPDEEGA

Assay [8] addresses T8, I613A peptide (HER2 603-622 with I613A) (human).
T8 construct: also called 1613A
T8 peptide: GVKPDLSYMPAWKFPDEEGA

Assay [9] addresses T9, K615A peptide (HER2 603-622 with K615A) (human).
T9 peptide: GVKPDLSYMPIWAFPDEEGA

For assay [10], the target named is T10, P612A peptide (HER2 603-622 with P612A) (human).
T10 peptide: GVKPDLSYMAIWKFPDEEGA

Assay [11] has as its target T11, V604A peptide (HER2 603-622 with V604A) (human).
T11 peptide: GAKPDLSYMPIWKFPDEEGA

Assay [12] deals with T12, K605A peptide (HER2 603-622 with K605A) (human).
T12 peptide: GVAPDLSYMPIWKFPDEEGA

The target in assay [13] is T13, G603A peptide (HER2 603-622 with G603A) (human).
T13 peptide: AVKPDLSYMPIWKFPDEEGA

Assay [14] deals with T14, F616A peptide (HER2 603-622 with F616A) (human).
T14 peptide: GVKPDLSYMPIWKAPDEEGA

Assay [15] addresses T15, M611A peptide (HER2 603-622 with M611A) (human).
T15 peptide: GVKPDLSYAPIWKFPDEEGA

In assay [16] the target is T16, S609A peptide (HER2 603-622 with S609A) (human).
T16 peptide: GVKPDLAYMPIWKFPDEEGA

The target in assay [17] is T17, Y610A peptide (HER2 603-622 with Y610A) (human).
T17 peptide: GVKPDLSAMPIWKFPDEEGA

The target of assay [18] is T18, P606A peptide (HER2 603-622 with P606A) (human).
T18 peptide: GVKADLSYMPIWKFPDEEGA

In assay [19] the target is T19, E619A peptide (HER2 603-622 with E619A) (human).
T19 peptide: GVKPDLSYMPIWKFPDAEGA

Assay [20] concerns the target T20, P617A peptide (HER2 603-622 with P617A) (human).
T20 peptide: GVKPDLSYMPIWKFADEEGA

The target of assay [21] is T21, D607A peptide (HER2 603-622 with D607A) (human).
T21 peptide: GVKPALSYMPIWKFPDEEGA

Assay [22] concerns the target T1, HER2_604-622C peptide ….
The target in assay [23] is T2, L608A peptide (HER2 603-622 with L608A).
In assay [24] the target is T3, W614A peptide (HER2 603-622 with W614A).
Assay [25] has as its target T4, G621A peptide (HER2 603-622 with G621A).
The target of assay [26] is T5, D618A peptide (HER2 603-622 with D618A).
Assay [27] deals with T6, E620A peptide (HER2 603-622 with E620A).
In assay [28] the target is T7, HER2 peptide p603-622 (amino acids 603 …).
The target of assay [29] is T8, I613A peptide (HER2 603-622 with I613A).
Assay [30] has as its target T9, K615A peptide (HER2 603-622 with K615A).
In assay [31] the target is T10, P612A peptide (HER2 603-622 with P612A).
Assay [32] addresses T11, V604A peptide (HER2 603-622 with V604A).
Assay [33] deals with T12, K605A peptide (HER2 603-622 with K605A).
Assay [34] has as its target T13, G603A peptide (HER2 603-622 with G603A).
The target in assay [35] is T14, F616A peptide (HER2 603-622 with F616A).
The target in assay [36] is T15, M611A peptide (HER2 603-622 with M611A).
Assay [37] deals with T16, S609A peptide (HER2 603-622 with S609A).
Assay [38] has as its target T17, Y610A peptide (HER2 603-622 with Y610A).
The target in assay [39] is T18, P606A peptide (HER2 603-622 with P606A).
The target of assay [40] is T19, E619A peptide (HER2 603-622 with E619A).
Assay [41] has as its target T20, P617A peptide (HER2 603-622 with P617A).
The target in assay [42] is T21, D607A peptide (HER2 603-622 with D607A).

B1: H2Mab-299 antibody (antibody, mouse IgG1, kappa, V domains shown)
VH: EVQLVESGGGLVQPGGSLKLSCAASGFTFNIYGIFWVRQTPDKRLELVATIHSNGGRIYYPDSVKGRFTISRDNAKNTLYLQMSSLKSEDTAMYYCAREGGDYWGQGTSVTVSS
VL: DIVMTQSHKVMATSVGDRVSITCKASQDVGTAVAWYQQKPGQSPKLLIYWASTRHTGVPDRFTGSGSGTDFTLTINNVLSEDLVDYFCQQYRRYPLTFGAGTKLELKR
Regarding B1, the binding result in assay [1], in [2], in [3], in assay [4], in assay [5] and in assay [6] was “binds” each time. The binding result in [7], in assay [8], in [9], in [10], in assay [11] and in [12] was “binds” throughout. The binding result in assay [13] is “binds”; in assay [14], “no binding (tested: 10 ug/ml)”; in assay [15] it was “binds”; in [16] it was “binds”; in assay [17] it was “binds”; in assay [18] it was “binds”. The binding result in assay [19], in assay [20] and in assay [21] was “binds” in each case.

B2: H2Mab-292 antibody (antibody, mouse IgG3, V domains shown)
VH: EVQLQQSGPELVKPGASRKISCKASGYSFTGYTMNWVKKSHGKNLEWIGLINPSNGGTRYNQKFKDKATLTVDKSSSTAYMELLSLTSEDSAVYYCVKEPSDYWGQGTTLTVSS
VL: DVVMTQTPLSLPVSLGDQASISCRSSQSLVHSNGNTYLHWYLQKPGQSPKLLIYKVSNRFSGVPDRFSGRGSGTDFTLKISRVEAEDLGIYFCSQSTHVPPTFGGGTKLEIKR
For B2, the binding result is listed as “binds” in assay [22]; “binds” in assay [23]; “no binding (tested: 10 ug/ml)” in [24]; “binds” in assay [25]; “binds” in assay [26]; “binds” in [27]. Further, the binding result in assay [28], in assay [29], in [30], in assay [31], in assay [32] and in assay [33] was “binds” in each case. Also, the binding result in assay [34], in [35], in assay [36], in assay [37], in assay [38] and in assay [39] was “binds” each time. Also, the binding result in [40], in assay [41] and in assay [42] was “binds” in each case.
